Experimental findings from paper PMC12494820, “Predicting input signals of transcription factors in Escherichia coli” (Molecular Systems Biology, 2025) are described below.

One data set relates to LeuO (Escherichia coli). Put plainly: EMSA. To be noted: EMSA: 10 mM Tris-HCl, 50 mM KCl, 5 mM MgCl2, 5% glycerol, 0.1 mg/ml BSA, pH 7.5, 500 ng salmon sperm DNA in 20 µl, 15 min at room temperature; gel 0.5x TBE at ….
The next data set addresses T1, LeuO (Escherichia coli, UniProt P10151).
T1 sequence (P10151 1-314): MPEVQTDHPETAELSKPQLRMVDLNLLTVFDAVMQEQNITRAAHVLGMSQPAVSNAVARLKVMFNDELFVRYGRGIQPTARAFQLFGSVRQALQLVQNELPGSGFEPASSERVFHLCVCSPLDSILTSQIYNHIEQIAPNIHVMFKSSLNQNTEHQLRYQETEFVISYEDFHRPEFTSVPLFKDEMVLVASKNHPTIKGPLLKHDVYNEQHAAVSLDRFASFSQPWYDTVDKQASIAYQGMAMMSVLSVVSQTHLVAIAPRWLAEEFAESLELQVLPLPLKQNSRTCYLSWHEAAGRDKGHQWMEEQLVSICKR
Kind of data set: thermal shift assay (Protein Thermal Shift Dye). It counts as binding. To be noted: 10 mM compound; LeuO with leuLABCD promoter DNA; pH 7.5, EMSA buffer without BSA; activating effector.

With leuLABCD promoter region fragment, in the data set on LeuO (Escherichia coli), the K half was determined as 25 nM.

Consider `CC(C)[C@@](O)(CC(=O)O)C(=O)O` [2-IPM, 2-isopropylmalate], for which the ΔTm on LeuO was determined as 1.6 °C.

As usually defined, the ΔTm is the change in melting temperature against a reference sample.
